Results taken from publication PMC10495444.

Experiments:
[1] = target: mXkr4ΔC Q332E (aXkr4), constitutively active mutant, fused with monomeric EGFP (mouse); experiment: SEC + native gel or EMSA; whole lysate of transfected HEK293T cells in LMNG/GDN 1:1 loaded on Superdex Increase 200 10/300 GL (10 mM HEPES-NaOH pH 7.5, 150 mM NaCl, 0.01% LMNG/GDN, 10% glycerol, 1 mM CaCl2 or 0.5 mM EGTA); dimer fraction collected by EGFP fluorescence; then BN-PAGE with anti-V5 blot after 1 h at 4, 16, 25 or 37 °C
[2] = target: mouse Xkr4 C-terminal cleaved form (mXkr4ΔC) fused with monomeric EGFP (mouse); experiment: as above

Row | Substance | stoichiometry N [1] | stoichiometry N [2]
1 | mXkr4ΔC Q332E (aXkr4), constitutively active mutant, fused with monomeric EGFP (domain or fragment) | 2 | –
2 | mouse Xkr4 C-terminal cleaved form (mXkr4ΔC) fused with monomeric EGFP (domain or fragment) | – | 2
